Data: patent publication EP4170021A1

Target: MCR-1 protein
Assay: indirect ELISA, plate coated with MCR-1 protein at 0.2 ug/mL, purified antibody serially diluted
Details: scale: dilution factor

Binder	titer
mouse anti-MCR-1 protein antibody 1BD9 (antibody, V domains shown) VH: VKLQQSGPELVKPGASVKVSCKASGYAFTSCNMYWVKQSHGKSLEWIGYFDPYSGDAYYNQKFKDKATLTVDKSSSTAYMHLNSLTSEDSAVYYCASWLQLYYALDYWGQGTSVTVSA VL: AIQMTQTPSSLSASLGDRVTISCRASQDISNYLNWYQQKPDGTVKLLIYYTSRLHSGVPSRFSGSGSGTDYSLNISNLEQEDFATYFCQQGDMIPDTFGGGTKLEIKR	> 1.28e+06
mouse anti-MCR-1 protein antibody 1BH8 (antibody, V domains shown) VH: VQLQQSGPELVKPGASVKMSCRASGYTFTNYIMHWVKQKPGQGLDWIGYINPYNDGTKYNEKFKGKATLSSDKSSGTAYMDLSSLTSEDSAVYYCARGPYGNYAMDYWGQGTSVTVSS VL: DVLMTQTPLSLPVSLGDQASISCRSSQNIVCSYGNPCLEWYLQKPGQSPKLLIYKVSNRFSGVPDRFSGSGSGTDFTLKISRVEAEDLGVYYCFQGSHVPWTFGGGTELEIKR	> 1.28e+06
